Assay results taken from article PMC6222095.

Target: T1, complement factor H, homozygous Tyr-402/Val-62 allotype (human), P08603
T1 chain: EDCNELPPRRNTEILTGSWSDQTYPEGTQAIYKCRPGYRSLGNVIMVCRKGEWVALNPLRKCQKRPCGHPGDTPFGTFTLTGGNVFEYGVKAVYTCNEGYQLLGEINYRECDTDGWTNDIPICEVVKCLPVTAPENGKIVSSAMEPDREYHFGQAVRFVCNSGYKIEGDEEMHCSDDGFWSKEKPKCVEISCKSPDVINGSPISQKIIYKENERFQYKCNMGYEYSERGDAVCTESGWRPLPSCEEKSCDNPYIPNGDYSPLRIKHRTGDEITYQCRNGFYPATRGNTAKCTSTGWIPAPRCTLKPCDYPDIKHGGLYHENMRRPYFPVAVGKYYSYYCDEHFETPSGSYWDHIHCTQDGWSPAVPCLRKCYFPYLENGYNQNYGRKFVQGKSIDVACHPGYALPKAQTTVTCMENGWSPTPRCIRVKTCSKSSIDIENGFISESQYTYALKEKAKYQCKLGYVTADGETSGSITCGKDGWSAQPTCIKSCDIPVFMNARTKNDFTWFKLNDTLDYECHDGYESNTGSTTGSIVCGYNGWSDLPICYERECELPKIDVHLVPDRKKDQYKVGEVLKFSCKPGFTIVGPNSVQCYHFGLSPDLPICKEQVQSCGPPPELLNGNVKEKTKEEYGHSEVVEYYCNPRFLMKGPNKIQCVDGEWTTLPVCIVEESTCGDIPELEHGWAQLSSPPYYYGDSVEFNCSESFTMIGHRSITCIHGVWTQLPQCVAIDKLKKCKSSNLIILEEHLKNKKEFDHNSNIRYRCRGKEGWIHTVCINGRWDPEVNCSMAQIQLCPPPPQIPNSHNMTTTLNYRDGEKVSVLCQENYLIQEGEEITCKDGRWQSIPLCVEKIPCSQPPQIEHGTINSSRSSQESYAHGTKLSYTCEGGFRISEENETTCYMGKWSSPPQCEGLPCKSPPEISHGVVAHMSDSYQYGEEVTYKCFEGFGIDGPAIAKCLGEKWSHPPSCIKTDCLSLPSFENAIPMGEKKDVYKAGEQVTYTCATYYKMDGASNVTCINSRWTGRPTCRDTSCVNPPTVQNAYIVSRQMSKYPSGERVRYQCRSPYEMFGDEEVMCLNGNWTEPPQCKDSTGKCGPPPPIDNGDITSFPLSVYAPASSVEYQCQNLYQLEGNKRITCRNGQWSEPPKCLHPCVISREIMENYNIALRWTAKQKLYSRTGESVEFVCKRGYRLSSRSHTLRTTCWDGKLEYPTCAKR
Assay: SPR
Conditions: natural protein, eight biantennary disialylated N-glycans, sites as printed: Asn-511, Asn-700, Asn-784, Asn-804, Asn-864, Asn-892, Asn-1011, Asn-1077, remark: other sources report otherwise

B1: complement factor H, homozygous Tyr-402/Val-62 allotype, P08603 19-1231 (protein)
chain: EDCNELPPRRNTEILTGSWSDQTYPEGTQAIYKCRPGYRSLGNVIMVCRKGEWVALNPLRKCQKRPCGHPGDTPFGTFTLTGGNVFEYGVKAVYTCNEGYQLLGEINYRECDTDGWTNDIPICEVVKCLPVTAPENGKIVSSAMEPDREYHFGQAVRFVCNSGYKIEGDEEMHCSDDGFWSKEKPKCVEISCKSPDVINGSPISQKIIYKENERFQYKCNMGYEYSERGDAVCTESGWRPLPSCEEKSCDNPYIPNGDYSPLRIKHRTGDEITYQCRNGFYPATRGNTAKCTSTGWIPAPRCTLKPCDYPDIKHGGLYHENMRRPYFPVAVGKYYSYYCDEHFETPSGSYWDHIHCTQDGWSPAVPCLRKCYFPYLENGYNQNYGRKFVQGKSIDVACHPGYALPKAQTTVTCMENGWSPTPRCIRVKTCSKSSIDIENGFISESQYTYALKEKAKYQCKLGYVTADGETSGSITCGKDGWSAQPTCIKSCDIPVFMNARTKNDFTWFKLNDTLDYECHDGYESNTGSTTGSIVCGYNGWSDLPICYERECELPKIDVHLVPDRKKDQYKVGEVLKFSCKPGFTIVGPNSVQCYHFGLSPDLPICKEQVQSCGPPPELLNGNVKEKTKEEYGHSEVVEYYCNPRFLMKGPNKIQCVDGEWTTLPVCIVEESTCGDIPELEHGWAQLSSPPYYYGDSVEFNCSESFTMIGHRSITCIHGVWTQLPQCVAIDKLKKCKSSNLIILEEHLKNKKEFDHNSNIRYRCRGKEGWIHTVCINGRWDPEVNCSMAQIQLCPPPPQIPNSHNMTTTLNYRDGEKVSVLCQENYLIQEGEEITCKDGRWQSIPLCVEKIPCSQPPQIEHGTINSSRSSQESYAHGTKLSYTCEGGFRISEENETTCYMGKWSSPPQCEGLPCKSPPEISHGVVAHMSDSYQYGEEVTYKCFEGFGIDGPAIAKCLGEKWSHPPSCIKTDCLSLPSFENAIPMGEKKDVYKAGEQVTYTCATYYKMDGASNVTCINSRWTGRPTCRDTSCVNPPTVQNAYIVSRQMSKYPSGERVRYQCRSPYEMFGDEEVMCLNGNWTEPPQCKDSTGKCGPPPPIDNGDITSFPLSVYAPASSVEYQCQNLYQLEGNKRITCRNGQWSEPPKCLHPCVISREIMENYNIALRWTAKQKLYSRTGESVEFVCKRGYRLSSRSHTLRTTCWDGKLEYPTCAKR
In the case of B1, the Kd is reported as over 40 µM.
